1 molecule from patent EP4785962A1, “ANTIBODY-DRUG CONJUGATE TARGETING TROP2, AND PREPARATION METHOD AND USE THEREFOR” (priority 2023, dated 2025) can be followed below.

In this test the test system is pancreatic cancer cell line BxPC3. Nature of the test: Mouse xenograft tumor model BxPC3. Format: in vivo, immunodeficient mice CB17-SCID. The settings on record: low dose (3 mg/kg), intraperitoneal, single administration. Here is the method:
• 1. Mice: immunodeficient mice CB17-SCID (Vital River) aged 6-8 weeks were placed in an SPF experimental environment for 3-5 days before the experiment to better adapt to the current living environment. In all experiments, the long and short diameters of the tumor were measured twice a week using a vernier caliper, and the tumor volume (mm^3) was calculated from the measured data. The calculation formula is as follows: Tumor volume(mm^3) = 0.5 × long diameter(mm) × short diameter(mm) × short diameter(mm) [formula] • 2. Human gastric cancer cell line NCI-N87 (ATCC) cells were resuspended in 1× PBS (Gibco, 10010049) at an appropriate concentration, and the tumor cells were implanted subcutaneously in the right abdomen of the mice at an inoculation amount of 2×10^6 /mouse. When the tumor volume reached 150-200 mm^3, the mice were divided into groups such that the average initial administration volume of each group was substantially the same. After grouping, different doses of antibody-drug conjugates hRs7-DXd, hRS7-MB3 and hTINA1-DXd, or control-drug conjugates IgG-MB3, IgG-DXd and IgG control were administered by intraperitoneal injection. […] Compared with hRS7-DXd, hRS7-MB3 has a stronger tumor inhibitory effect. […] The growth status of the mice was observed, and the changes in tumor volume of the mice were measured. […]

B1: hTINA1-DXd: control ADC: antibody hTINA1 conjugated with Linker-DXd, average DAR 4.3; TROP2-ADC from Daiichi Sankyo (conjugate, chains of the INN, looked up)
VH: QVQLVQSGAEVKKPGASVKVSCKASGYTFTTAGMQWVRQAPGQGLEWMGWINTHSGVPKYAEDFKGRVTISADTSTSTAYLQLSSLKSEDTAVYYCARSGFGSSYWYFDVWGQGTLVTVSS
VL: DIQMTQSPSSLSASVGDRVTITCKASQDVSTAVAWYQQKPGKAPKLLIYSASYRYTGVPSRFSGSGSGTDFTLTISSLQPEDFAVYYCQQHYITPLTFGQGTKLEIK
modifications: deruxtecan (Linker-DXd), DAR 4.3
notes: control ADC: antibody hTINA1 conjugated with Linker-DXd, average DAR 4.3; TROP2-ADC from Daiichi Sankyo
In the case of B1, the tumor inhibitory effect result is “equivalent tumor inhibitory effects”.
